Reference: the nanobody polyreactivity screen of Harvey et al. (2022)

Assay: yeast display, Sf9 membrane polyspecificity reagent, FACS + sequencing; frameworks hold sequencing errors
Method in brief: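 Using colony PCR, genes from sorted yeast display clones were amplified, then sequenced on MiSeq at 2 × 250 and filtered by CDR length. The clones had been stained with 10% biotinylated, detergent-solubilized Sf9 membrane reagent for 1 hour at 4 °C and sorted by FACS into low and high (top ~1%) gates on anti-HA and streptavidin fluorescence. Polyreactivity labels come from the gate of origin.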

QVQLVESGGGLVPAGGSLRLSCAASGSTFSDYAMGWYRQAPGKERELVASIDSGDSTNYADSVKGRFTISRDNAKNTVYLQMTSLKPEDTAVYFCAADYQNTGARYGYYYWGQGTQVTVSS
polyreactivity (PSR sort gate): low polyreactivity

QVQLVESGGGLVQAGGSLRLSCAASGFIFRNYAMGWYRQAPGKERELVAAISRRAGSTYYADSVKGRFTISRDNAKNTVYLQMNSLKPEVTAVYYCAADSYWRYYPTKYDYWGQGTQVTVSS
polyreactivity (PSR sort gate): high polyreactivity

QVQLVESGGGLVQAGGSLRLSSAASGFTFVNYAMGWYRQAPGKERELVAAITRGGSTYYADSVKGRFTISRDNAKNTVYLNMNSLIPEDTAVYYCSARYFYLFRPTEYYYWGQGTQVTVSS
polyreactivity (PSR sort gate): high polyreactivity

QVQLVESGGGLVQAGGSLRLSCAASGRTFTQYAMGWYRQAPGKERELVAAISWRGGSTYYADSVKGRFTISRDNAKNTVYLQMNSLKPEDTAVYYCAKRYFRGYPLYDYWGQGTQVTVSS
polyreactivity (PSR sort gate): high polyreactivity

QVQLVESGGGLVQAGGSLRLSCAASGRIFWGYAMGWYRQAPGKERELVARITSGGDTYYADSVKGRFTISRDNAKNTVYLQMNSLKPEDTAVYYCNADVGTEWDNYPEVDYWGQGTQVTVSS
polyreactivity (PSR sort gate): low polyreactivity

QVQLVESGGGLVPAGASLRLSCAASGSTSYVYAMGWYRKAPGKERELVAAISGSGGRTYYADSVKGRFTISRDNAKNTVYLQMNSLKPEDTAVYYCNAMPRPSYPFDYWGQGTQVTVSS
polyreactivity (PSR sort gate): high polyreactivity

QVQLVESGGGLVQAGGSLRLSCAASGSTFDSYAMGWYRPAPGKERELVAAISSGGSTNYADSVKGRFTISRDNAKNTVYLQMYSLKPEDTAVYYCAAYGGHIWWLYRHYGYDYWGQGTQVTVSS
polyreactivity (PSR sort gate): low polyreactivity

QVQLVESGGGLVQAGGSLRLSCAASGITFGRYVMGWYRQAPGKERELVATISSGGRTKYADSVKGRFSISRDNAKNTVYLQMNSLKPEDTAGYYCNAESPKWPWYSGFDYWGQGTQVTVSS
polyreactivity (PSR sort gate): high polyreactivity

QVQLQESGGGLVQVGGSQRLSCAASGNIFYNYAMGWYRHAQGKEREFDATINHGTSINYADSVKGRFTISRDNAKNSVYLQMNSLKPEDTAVYYCAADLSWTDNLFYWGQGTQVTVSS
polyreactivity (PSR sort gate): low polyreactivity

QDQLVESGGGLVQARVSLRLSSAASGFIFRWNTMGWYRQAPGKERELVAAISSRGGSTYYAYSVKGRFKISRDNAKNTVYLQMNSLKPEDTAVYYCNAVRGDEYWGQGTQVTVSS
polyreactivity (PSR sort gate): high polyreactivity

QVQLVESGGGLVQAGGSLRLSCAASGFIFSRYAMGWYRQAPGKERELVASISWGGGSTSYADSVKGRFTISRDNAKNTVYLQMNSLKPEDTAVYYCNARVRSHRFNYWGQGTQVTVSS
polyreactivity (PSR sort gate): high polyreactivity

QVQLVESGGGLVQAGGSLRLSCAASGLILHKYAMGWYRQAPGKERELVASINSGANTNYADSVKGRFTISRDNAKNTVYLQMNSLKPEDTAVYYCNASPFTVRYYKYEYWGQGTQVTVSS
polyreactivity (PSR sort gate): low polyreactivity

QVQLVESGGCLVQAGGSLRLSCAASGSIFSRNVMGWYRKAPGKERELVAAITGSGGRTYYADSVKGRFTISRDNAKNTVYLQMNSLKPEDTAVYYCAKSRPGTYDYWGPGTQVTVSS
polyreactivity (PSR sort gate): high polyreactivity

QVQLVESGGGLVQAGGSLRLSCAASGRTFVTNAMGWYRQAPGKERELVAAISSNGGSTYYADSVKGRFTISRDNAKNTVYLQMNSLKPEDTAVYYCNAEGQPLYVSWHDHRYIYGFDYWGQGTQVTVSS
polyreactivity (PSR sort gate): low polyreactivity

QVQLVESGGGLVQAGGSLRLSCAASGSIFPYYAMGWYRQAPGKERELVAAITLSGGRTYYADSVKGRFTISRDNAKNTVYLQMNSLKPEDTAVYYCNVYRSKKRYGWGEDDYWGQCTQVTVSS
polyreactivity (PSR sort gate): high polyreactivity

QVQLVESGGGLVQAGGSLRLSCPASGSIFWPNAMGWYRQAPGKERELVASINSGSGSTYYADSVKGRFTISRDNAKNTVYLQMNSLKPEDTAVYYCNAAGAYPYYSEDYYWGQGTQVTVSS
polyreactivity (PSR sort gate): low polyreactivity

QVQLVESGGGLVQAGGSLRLSCAASGITILWNVMGWYRQAPGKERELVATITSIGGITNYADSVKGRFTISRDNAKNTVYLQMNSLKPEDTAVYYCARDDRDIRGVSGREGFLYDYWGQGTQVTVSS
polyreactivity (PSR sort gate): low polyreactivity
